# US20250270319A1 (Alector, published 2025)
# Positions count from the first letter of the chain named.
# B1: anti-CD33 antibody 6C7H10 (antibody, IgG1, V domains shown)
# VH: EVQLVESGGGLVQPGGSLRLSCAASGFTFSEYAMNWVRQAPGKGLEWVGEIRLKSNNYVTNYAASVKGRFTISRDDSKNSVYLQMNSLKTEDTGVYYCTRAGYYVPFAYWGQGTLVTVSS
# VL: QLVLTQSPSASASLGASVKLTCTLSSQHSTYTIEWYQQQPEKGPRYLMELKKEGSHSTGDGIPDRFSGSSSGAERYLTISSLQSEDEADYYCGVGDTIKEQFVYVFGGGTKLTVL
# notes: VH/VL only; also called 6C7H10 IgG1
# B2: anti-CD33 antibody 6C7H52 (antibody, V domains shown)
# VH: B1 VH with N35L
# VL: B1 VL with V3M, E41G, D96H
# notes: VH/VL only
# B3: anti-CD33 antibody 6C7H46 (antibody, V domains shown)
# VH: B1 VH with N35L
# VL: B1 VL with L2P, V3M, E41G, D96L
# notes: VH/VL only
# B4: anti-CD33 antibody 6C7H53 (antibody, V domains shown)
# VH: B1 VH with A24G, E31N, A33E, G49A
# VL: B1 VL with L2P, D96V
# notes: VH/VL only
# B5: anti-CD33 antibody 6C7H48 (antibody, V domains shown)
# VH: B1 VH with A24G, E31N, A33E, G49A
# VL: B1 VL with L2P, V3M, E41G, D96L
# notes: VH/VL only
# B6: anti-CD33 antibody 6C7H47 (antibody, V domains shown)
# VH: B1 VH with A24G, E31N, A33E, G49A
# VL: B1 VL with V3M, E41G, D96H, V105E
# notes: VH/VL only
# B7: anti-CD33 antibody 6C7H50 (antibody, V domains shown)
# VH: B1 VH with A33D, N35L
# VL: B1 VL with V3M, E41G, D96H
# notes: VH/VL only
# B8: anti-CD33 antibody 6C7H51 (antibody, V domains shown)
# VH: B1 VH with N35L
# VL: B1 VL with L2P, D96V
# notes: VH/VL only
# B9: anti-CD33 antibody 6C7H45 (antibody, V domains shown)
# VH: B1 VH with N35L
# VL: B1 VL with V3M, E41G, D96H, V105E
# notes: VH/VL only
# B10: 6C7H10 IgG1 SELF (antibody)
# chain 1: not shown
# chain 2: B1 VL
# B11: 6C7H8 IgG1 LALAPS (antibody, V domains shown)
# VH: B1 VH with A24G, E31N, A33C, G49A
# VL: B1 VL
# B12: 6C7H54 IgG1 PS (antibody)
# chain 1: not shown
# chain 2: B1 VL with V3M, E41G, D96H
# B13: 6C7H10 IgG1 LALAPS (antibody)
# chain 1: not shown
# chain 2: B1 VL
# B14: 6C7H10 IgG2 (antibody)
# chain 1: EVQLVESGGGLVQPGGSLRLSCAASGFTFSEYAMNWVRQAPGKGLEWVGEIRLKSNNYVTNYAASVKGRFTISRDDSKNSVYLQMNSLKTEDTGVYYCTRAGYYVPFAYWGQGTLVTVSSASTKGPSVFPLAPCSRSTSESTAALGCLVKDYFPEPVTVSWNSGALTSGVHTFPAVLQSSGLYSLSSVVTVPSSNFGTQTYTCNVDHKPSNTKVDKTVERKCCVECPPCPAPPVAGPSVFLFPPKPKDTLMISRTPEVTCVVVDVSHEDPEVQFNWYVDGVEVHNAKTKPREEQFNSTFRVVSVLTVVHQDWLNGKEYKCKVSNKGLPAPIEKTISKTKGQPREPQVYTLPPSREEMTKNQVSLTCLVKGFYPSDIAVEWESNGQPENNYKTTPPMLDSDGSFFLYSKLTVDKSRWQQGNVFSCSVMHEALHNHYTQKSLSLSPGK
# chain 2: B1 VL
# B15: 6C7H54 IgG2 (antibody)
# heavy: B14 chain 1 with A24G, E31N, A33E, G49A
# light: QLMLTQSPSASASLGASVKLTCTLSSQHSTYTIEWYQQQPGKGPRYLMELKKEGSHSTGDGIPDRFSGSSSGAERYLTISSLQSEDEADYYCGVGHTIKEQFVYVFGGGTKLTVLGQPKAAPSVTLFPPSSEELQANKATLVCLISDFYPGAVTVAWKADSSPVKAGVETTTPSKQSNNKYAASSYLSLTPEQWKSHRSYSCQVTHEGSTVEKTVAPTECS
# B16: anti-CD33 antibody 6C7H1 (antibody, V domains shown)
# VH: B1 VH with E31N, A33C, V81L, G94A, T99A, A101D
# VL: B1 VL with Y36H, E49K, E53D
# notes: Humanized 6C7; VH/VL only
# B17: anti-CD33 antibody 6C7H2 (antibody, V domains shown)
# VH: B1 VH with A24G, E31N, A33C, G49A, A101D
# VL: B1 VL with Y36H, E49K, E53D
# notes: Humanized 6C7; VH/VL only
# B18: anti-CD33 antibody 6C7H4 (antibody, V domains shown)
# VH: B1 VH with A24G, E31N, A33C, G49A, V81L, G94A, A101D
# VL: B1 VL with E53D
# notes: Humanized 6C7; VH/VL only
# B19: anti-CD33 antibody 6C7H7 (antibody, V domains shown)
# VH: B1 VH with A24G, E31N, A33C, G49A, V81L, G94A, A101D
# VL: B1 VL with V18A, L47V, E53D, L82I, Y91I, L112V
# notes: Humanized 6C7; VH/VL only
# B20: anti-CD33 antibody 6C7H3 (antibody, V domains shown)
# VH: B1 VH with E31N, A33C, V81L, G94A, T99A, A101D
# VL: B1 VL with E53D
# notes: Humanized 6C7; VH/VL only
# B21: anti-CD33 antibody 6C7H6 (antibody, V domains shown)
# VH: B1 VH with E31N, A33C, V81L, G94A, T99A, A101D
# VL: B1 VL with V18A, L47V, E53D, L82I, Y91I, L112V
# notes: Humanized 6C7; VH/VL only
# Biological target: T1, human CD33 on primary human dendritic cells (human, UniProt P20138 18-364)
# T1 sequence (P20138 18-364): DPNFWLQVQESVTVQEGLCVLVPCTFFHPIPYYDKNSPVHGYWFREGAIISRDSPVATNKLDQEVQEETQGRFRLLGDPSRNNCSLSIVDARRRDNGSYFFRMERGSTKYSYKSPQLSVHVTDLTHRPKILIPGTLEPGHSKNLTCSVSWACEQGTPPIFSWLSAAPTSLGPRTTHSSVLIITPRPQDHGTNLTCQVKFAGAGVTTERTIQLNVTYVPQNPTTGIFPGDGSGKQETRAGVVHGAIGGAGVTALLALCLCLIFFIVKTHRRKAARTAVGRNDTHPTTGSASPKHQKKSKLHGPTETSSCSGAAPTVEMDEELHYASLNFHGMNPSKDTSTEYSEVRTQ
# Experiment: cell-based or functional assay
Fold increase in potency compared to 6C7H5,Maximal reduction in CD33 (% remaining),"Receptor downregulation, (EC50) (pM)",Binder
0.1 fold,21.2 % remaining,778 pM,B1

# Biological target: T1, human CD33 on primary human dendritic …
# Experiment: cell-based or functional assay
# Remark: another data set of the same source
Fold increase in potency compared to 6C7H5,"Receptor downregulation, (EC50) (pM)",Binder
0.9 fold,47.7 pM,B2
0.7 fold,61.7 pM,B3
1.2 fold,35.4 pM,B4
0.8 fold,56.3 pM,B5
0.7 fold,59 pM,B6
0.7 fold,57.8 pM,B7
1 fold,42.4 pM,B8
1 fold,44.5 pM,B9

# Biological target: T1, human CD33 on primary human dendritic …
# Experiment: cell-based or functional assay
# Remark: another data set of the same source
Fold change in potency from IgG1,Maximal downregulation (% CD33 remaining),"Receptor downregulation, (pM, EC50)",Binder
25.8 fold,19.6 % CD33 remaining,30.1 pM,B10
0.93 fold,67.4 % CD33 remaining,83.7 pM,B11
2.4 fold,23.9 % CD33 remaining,12.6 pM,B12
0.58 fold,62.3 % CD33 remaining,1350 pM,B13
1.01 fold,24.2 % CD33 remaining,772 pM,B14
,21.2 % CD33 remaining,778 pM,B1
1.2 fold,14.3 % CD33 remaining,25.3 pM,B15

# Biological target: T2, recombinant human CD33 protein (Sino Biologicals) (human, UniProt P20138 18-259)
# T2 construct: Bought protein; also called recombinant CD33
# T2 sequence (P20138 18-259 limits assumed): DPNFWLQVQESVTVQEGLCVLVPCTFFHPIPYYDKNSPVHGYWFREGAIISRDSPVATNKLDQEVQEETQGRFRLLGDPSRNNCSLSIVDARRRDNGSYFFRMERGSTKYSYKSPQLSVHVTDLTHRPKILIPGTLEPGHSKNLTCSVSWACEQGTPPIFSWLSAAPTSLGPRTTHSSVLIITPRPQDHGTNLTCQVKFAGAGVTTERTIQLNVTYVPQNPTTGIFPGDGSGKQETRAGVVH
# Experiment: ELISA, plate coated with recombinant CD33
row,EC50,Binder
1,0.23 nM,B2
2,0.19 nM,B3
3,0.18 nM,B4
4,0.17 nM,B5
5,0.22 nM,B6
6,0.22 nM,B7
7,0.19 nM,B8
8,0.15 nM,B9

# Biological target: T3, recombinant cynomolgus CD33 protein (NovoProtein) (cynomolgus)
# T3 construct: Bought protein; also called cyno CD33
# T3 sequence (chain, as listed by the source limits assumed): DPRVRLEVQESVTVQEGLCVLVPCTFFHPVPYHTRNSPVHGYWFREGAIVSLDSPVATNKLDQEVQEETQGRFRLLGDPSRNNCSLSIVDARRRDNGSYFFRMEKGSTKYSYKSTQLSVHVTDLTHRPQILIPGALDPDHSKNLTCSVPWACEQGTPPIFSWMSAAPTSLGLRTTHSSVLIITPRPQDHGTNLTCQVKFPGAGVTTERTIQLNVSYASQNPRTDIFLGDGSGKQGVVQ
# Experiment: ELISA, plate coated with recombinant CD33
EC50,Relative maximal binding (cyno/human),Relative potency (human/cyno),Binder
1.7 nM,0.47,0.14,B2
16.8 nM,0.23,0.01,B3
25.6 nM,0.39,0.01,B4
1.19 nM,0.53,0.14,B5
0.42 nM,0.43,0.52,B6
,0.21,,B7
,0.08,,B8
,0.31,,B9

# Biological target: T2, recombinant human CD33 protein (Sino …)
# Experiment: BLI (ForteBio), antibody on anti-human Fc sensor, CD33 10 nM
# Experimental: Affinity parameters of the antibody variants for human CD33 were measured by BioLayer Interferometry in a ForteBio assay according to standard techniques (Estep et al. (2013) MAbs 5(2): 270-8) and were compared to those of the parental antibody (antibody 6C7H8) and the parental humanized antibody (antibody 6C71H5). Briefly, the antibodies were captured on anti-human Fc Biosensors (Pall ForteBio). Recombinant human CD33 (10 nM, Sino Biologicals) was then bound to the captured anti-CD33 surface (200 s association time, 1200 s dissociation time). Local fitting was used to extract association and dissociation rate constants (kₐ and kd, respectively) for each antibody. Apparent affinity constants (KD) were calculated from the ratio kd/kₐ.
Kd,koff,kon,Binder
0.561 nM,0.000823 s⁻¹,1.47e+06 M⁻¹ s⁻¹,B1

# Biological target: T1, human CD33 on primary human dendritic …
# Experiment: flow cytometry on primary human dendritic cells, antibody dilutions, fluorescent anti-human IgG secondary
# Experimental: The 7 humanized anti-CD33 antibodies of 6C7 were evaluated for binding to primary dendritic cells by flow cytometry, and binding was compared to that of an anti-CD33 6C7 chimeric antibody that contained the variable heavy chain sequence and the variable light chain sequence of anti-CD33 antibody 6C7. Monocytes were isolated from blood from healthy human donors using the RosetteSep™ monocyte isolation antibody cocktail (StemCell Technologies). The isolated monocytes were differentiated into dendritic cells with 100 ng/mL GM-CSF and 100 ng/mL IL-4 (Peprotech). Dendritic cells were incubated with dilutions of the anti-CD33 antibodies for 30 minutes on ice in the dark, followed by a 30-minute incubation with a fluorescently-conjugated anti-human IgG secondary antibody. Cells were washed twice in FACS buffer (PBS+2% FBS, 2 mM EDTA), and flow cytometry was performed on a BD FACS Canto. Data were analyzed using FlowJo software (Ashland, OR).
row,binding result,Binder
1,no binding (tested: about 1.2 ug/mL),B16
2,no binding (tested: about 2 ug/mL),B17
3,binds,B18
4,binds,B19
5,binds,B20
6,binds,B21
